The values that follow are results of earlier work, collected in publication PMC6953019.

pKd: −log10 of the molar value.

In this data set the target is TβRII (Homo sapiens) (UniProt P37173). Briefly: SPR. On the technique in general: Surface plasmon resonance follows binding to a sensor surface in real time, without labels.
Sequence of TβRII (Homo sapiens) (P37173 23-166): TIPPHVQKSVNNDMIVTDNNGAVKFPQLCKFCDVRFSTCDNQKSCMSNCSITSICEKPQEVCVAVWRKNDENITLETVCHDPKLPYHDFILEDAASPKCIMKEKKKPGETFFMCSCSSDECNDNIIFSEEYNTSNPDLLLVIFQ

Sequence of TGFβ2 (P61812 303-414): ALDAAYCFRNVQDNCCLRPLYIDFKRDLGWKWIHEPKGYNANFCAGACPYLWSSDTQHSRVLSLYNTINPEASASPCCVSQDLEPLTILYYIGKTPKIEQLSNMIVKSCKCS

On to TGFβ2 (from UniProt P61812), for which the pKd – broadly, the Kd on a negative log10 scale, so that one unit is a factor of ten – is 8.30.
